Target: T1, recombinant PRL-3 (Phosphatase of Regenerating Liver-3) (Homo sapiens, UniProt O75365)
T1 construct: Phosphatase of Regenerating Liver-3 (PRL-3), human cDNA amplified with gene-specific primers and cloned into pSKB3 (NheI/XhoI); also called apo PRL-3; PTP4A family member; source: E. coli One-Shot BL21 Star DE3, purified (Ni-NTA, TEV cleavage, Superdex 200); not shown: 6XHis, N-terminal, cleaved
Assay: BLI; BLItz; nanobody (626.57 nM) loaded on Anti-Penta-HIS (HIS1K) biosensors; PRL-3 as analyte at six concentrations; association 5 min, dissociation 2 min; 1X kinetics buffer; global fit
Conditions: both partners purified

T1 sequence (O75365 1-169): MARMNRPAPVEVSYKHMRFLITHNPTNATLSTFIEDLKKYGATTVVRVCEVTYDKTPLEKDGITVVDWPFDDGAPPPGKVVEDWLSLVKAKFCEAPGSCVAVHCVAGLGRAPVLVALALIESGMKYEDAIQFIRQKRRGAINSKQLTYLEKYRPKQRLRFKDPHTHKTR

Kd [nM]	koff [s⁻¹]	kon [M⁻¹ s⁻¹]	Binder
28.9	0.000127	4380	anti-PRL-3 nanobody 26 (VHH, also called NB 26; nanobody 26-His; source: E. coli One-Shot BL21 Star DE3 (pMES4), purified (Ni-NTA, Superdex 200); not shown: 6XHis, C-terminal, kept) VHH: QVQLQESGGGLVQPGGSLKLSCVVTGLHYYTEGWFRQAPGKEREGVSCISSSDGRTDYIDSVKGRFTISEDNDNKTVYLQMNTLKPDDTGVYYCVAERGPRGSTWWETYDYWGQGTHVTVSS
98.4	0.000386	3920	anti-PRL-3 nanobody 19 (VHH, also called NB 19; source: E. coli One-Shot BL21 Star DE3 (pMES4), purified (Ni-NTA, Superdex 200); not shown: 6XHis, C-terminal, kept) VHH: QVQLQESGGGLVQAGGSLGLSCAASRSIFNFKVMGWYRQAPGKQRELVASITNSDNTYYADSVKGRFTISREDAKTTMYLEMNSLKPEDTAVYRCYGQNWGLRATTYWGQGTQVTVSS
101	0.000332	3280	anti-PRL-3 nanobody 84 (VHH, also called NB 84; source: E. coli One-Shot BL21 Star DE3 (pMES4), purified (Ni-NTA, Superdex 200); not shown: 6XHis, C-terminal, kept) VHH: QVQLQESGGGLVQAGGSLGLSCAASRSIFNFKVMGWYRQAPGKQRELVASITNSDNTYYADSVKGRFTISREDAKTTMYLEMNSLKPEDTTVYRCYGQNWGLRATTYWGQGTQVTVSS
202	0.000565	2750	anti-PRL-3 nanobody 4 (VHH, also called NB 4; source: E. coli One-Shot BL21 Star DE3 (pMES4), purified (Ni-NTA, Superdex 200); not shown: 6XHis, C-terminal, kept) VHH: QVQLQESGGGLVQTGGSLRLSCAASQSTYNFDVMGWYRLAPGKQREFLTSITNGGNIYYADSVKGRFTIARDDSKTTMYLEMNSLKPEDTAVYTCYGQTHKPRVTTSWGQGTQVTVSS
203	0.00139	6880	anti-PRL-3 nanobody 91 (VHH, 91 is its standard; also called NB 91; nanobody 91-His; source: E. coli One-Shot BL21 Star DE3 (pMES4), purified (Ni-NTA, Superdex 200); not shown: 6XHis, C-terminal, kept) VHH: QVQLQESGGGLVQTGGSLRLSCAASQSTFNFDVMGWYRLAPGKQREFLTSITNGGNIYYADSVKGRFTIARDDSKTTMYLEMNSLKPEDTAVYTCYGQTHKPRVTTSWGQGTQVTVSS
299	0.000624	2090	anti-PRL-3 nanobody 16 (VHH, also called NB 16; source: E. coli One-Shot BL21 Star DE3 (pMES4), purified (Ni-NTA, Superdex 200); not shown: 6XHis, C-terminal, kept) VHH: QVQLQESGGGLVQTGGSLRLSCAASQSTFNFDVMGWYRLAPGKQREFLTSITNGGNIYYADSVKGRFTTARDDSKTTMYLEMNSLKPEDTAVYTCYGQTHKPRVTTSWGQGTQVTVSS

— PMC10204944, “Development and characterization of nanobodies that specifically target the oncogenic Phosphatase of Regenerating Liver-3 (PRL-3) and impact its interaction with a known binding partner, CNNM3” (PLOS ONE, 2023)
